Data taken from patent US20210113690A1 (BERLIN CHEMIE, published 2021).

Columns and labels:
LY75 883-901 = molecular target: T1, LY75 883-901 (human); assay: peptide microarray; region identified by signal above the cut off
T1 construct: Region put together from overlapping 8mers on the array
T1 peptide: DDHFTYSRYPWHRFPVTFG
Procedure: (§1) The peptide microarray analysis was performed by LC Sciences, Houston Tex., in brief the method comprised the following steps: —Contiguous 8mer peptides of LY75 protein having […] spanning residues 216 to 1666 of the full length LY75 protein were synthesized and immobilized on a microarray chip. The chip comprised three panels such that the experiment was performed in triplicate. […] The binding assay was performed under the following conditions:—
(§2) The microarray comprising the contiguous peptides in triplicate was washed with 1 mL of binding buffer at 4° C. for 20 min. […] The array was again washed with 0.5 mL of washing buffer at 4° C. for 30 min then incubated with 25 ng/mL anti-human IgG Alexa 647 conjugate in binding buffer (pH 7.0) at 4° C. for 1 hr. The array was again washed with 0.5 mL of washing buffer at 4° C. for 30 min.

LY75 1029-1040 = molecular target: T2, LY75 1029-1040 (human); assay: as above
T2 construct: Region put together from overlapping 8mers on the array
T2 peptide: RELTYSNFHPLL
Procedure: as §1, §2

LY75 1077-1093 = molecular target: T3, LY75 1077-1093 (human); assay: as above
T3 construct: Region put together from overlapping 8mers on the array
T3 peptide: FTSCSERHFVSLCQKYS
Procedure: as §1, §2

LY75 1107-1118 = molecular target: T4, LY75 1107-1118 (human); assay: as above
T4 construct: Region put together from overlapping 8mers on the array
T4 peptide: TVKYLNNLYKII
Procedure: as §1, §2

LY75 761-780 = molecular target: T5, LY75 761-780 (human); assay: as above
T5 construct: Region put together from overlapping 8mers on the array; also called Region 3 (aa761-780)
T5 peptide: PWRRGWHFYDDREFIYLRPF
Procedure: as §1, §2

[1] = molecular target: Contiguous 8mer peptides of LY75 protein spanning residues 216 to 1666 of the full length LY75 protein (peptide microarray); assay: peptide microarray, 1 ug/mL LY75_A1, scanned at 635 nm; cut off for non-specific binding 3000
EVKDCRSF = molecular target: T6, EVKDCRSF; assay: peptide microarray, 8mer on the chip, 1 µg/mL LY75_A1, anti-human IgG Alexa 647
T6 construct: LY75 8mer on the microarray
T6 peptide: EVKDCRSF
Procedure: as §1, §2

PWRRGWHF = molecular target: T7, PWRRGWHF; assay: as above
T7 construct: LY75 8mer on the microarray
T7 peptide: PWRRGWHF
Procedure: as §1, §2

DREFIYLR = molecular target: T8, DREFIYLR; assay: as above
T8 construct: LY75 8mer on the microarray; aa 771-778 counted from Region 3 (aa761-780)
T8 peptide: DREFIYLR
Procedure: as §1, §2

EFIYLRPF = molecular target: T9, EFIYLRPF; assay: as above
T9 construct: LY75 8mer on the microarray; aa 773-780 counted from Region 3 (aa761-780)
T9 peptide: EFIYLRPF
Procedure: as §1, §2

DDHFTYSR = molecular target: T10, DDHFTYSR; assay: as above
T10 construct: LY75 8mer on the microarray
T10 peptide: DDHFTYSR
Procedure: as §1, §2

DHFTYSRY = molecular target: T11, DHFTYSRY; assay: as above
T11 construct: LY75 8mer on the microarray
T11 peptide: DHFTYSRY
Procedure: as §1, §2

HFTYSRYP = molecular target: T12, HFTYSRYP; assay: as above
T12 construct: LY75 8mer on the microarray
T12 peptide: HFTYSRYP
Procedure: as §1, §2

YSRYPWHR = molecular target: T13, YSRYPWHR; assay: as above
T13 construct: LY75 8mer on the microarray
T13 peptide: YSRYPWHR
Procedure: as §1, §2

SRYPWHRF = molecular target: T14, SRYPWHRF; assay: as above
T14 construct: LY75 8mer on the microarray
T14 peptide: SRYPWHRF
Procedure: as §1, §2

RYPWHRFP = molecular target: T15, RYPWHRFP; assay: as above
T15 construct: LY75 8mer on the microarray
T15 peptide: RYPWHRFP
Procedure: as §1, §2

ELTYSNFH = molecular target: T16, ELTYSNFH; assay: as above
T16 construct: LY75 8mer on the microarray
T16 peptide: ELTYSNFH
Procedure: as §1, §2

LTYSNFHP = molecular target: T17, LTYSNFHP; assay: as above
T17 construct: LY75 8mer on the microarray
T17 peptide: LTYSNFHP
Procedure: as §1, §2

TYSNFHPL = molecular target: T18, TYSNFHPL; assay: as above
T18 construct: LY75 8mer on the microarray
T18 peptide: TYSNFHPL
Procedure: as §1, §2

VKYLNNLY = molecular target: T19, VKYLNNLY; assay: as above
T19 construct: LY75 8mer on the microarray
T19 peptide: VKYLNNLY
Procedure: as §1, §2

EAVYFHQH = molecular target: T20, EAVYFHQH; assay: as above
T20 construct: LY75 8mer on the microarray
T20 peptide: EAVYFHQH
Procedure: as §1, §2

AVYFHQHS = molecular target: T21, AVYFHQHS; assay: as above
T21 construct: LY75 8mer on the microarray
T21 peptide: AVYFHQHS
Procedure: as §1, §2

VYFHQHSI = molecular target: T22, VYFHQHSI; assay: as above
T22 construct: LY75 8mer on the microarray
T22 peptide: VYFHQHSI
Procedure: as §1, §2

YFHQHSIL = molecular target: T23, YFHQHSIL; assay: as above
T23 construct: LY75 8mer on the microarray
T23 peptide: YFHQHSIL
Procedure: as §1, §2

GSRWIQYK = molecular target: T24, GSRWIQYK; assay: as above
T24 construct: LY75 8mer on the microarray
T24 peptide: GSRWIQYK
Procedure: as §1, §2

SRWIQYKG = molecular target: T25, SRWIQYKG; assay: as above
T25 construct: LY75 8mer on the microarray
T25 peptide: SRWIQYKG
Procedure: as §1, §2

YKSDQALH = molecular target: T26, YKSDQALH; assay: as above
T26 construct: LY75 8mer on the microarray
T26 peptide: YKSDQALH
Procedure: as §1, §2

B1: LY75_A1 monoclonal antibody (antibody, human IgG1, kappa, V domains shown)
VH: EVQLVESGGGLVKPGGSLRLSCAASGFTYSNAWMSWVRQAPGKGLEWVGRIKSKTDGGTTDYAAPVQGRFTISRDDSKNTLYLQMNSLKTEDTAVYYCTIFGVVSFDYWGQGTLVTVSS
VL: DVQMTQSPSSLSASVGDRVTITCRASQSISDYLSWYQQRPGKAPNLLIYAASNLKTGVPSRFSGSGSGTDFTLTISTLQPEDFATYYCQQSYRSPWTFGQGTKVEIKR
notes: also called LY75A1 antibody; antibody LY75_A1
binding result (LY75 883-901): binds | binding result (LY75 1029-1040): binds | binding result (LY75 1077-1093): binds | binding result (LY75 1107-1118): binds | binding result (LY75 761-780): binds | average signal intensity of all spots (signal intensity (scale 1-65535)) [1]: 885 | maximum signal intensity (signal intensity (scale 1-65535)) [1]: 25000 | binding result (EVKDCRSF): binds | binding result (PWRRGWHF): binds | binding result (DREFIYLR): binds | binding result (EFIYLRPF): binds | binding result (DDHFTYSR): binds | binding result (DHFTYSRY): binds | binding result (HFTYSRYP): binds | binding result (YSRYPWHR): binds | binding result (SRYPWHRF): binds | binding result (RYPWHRFP): binds | binding result (ELTYSNFH): binds | binding result (LTYSNFHP): binds | binding result (TYSNFHPL): binds | binding result (VKYLNNLY): binds | binding result (EAVYFHQH): binds | binding result (AVYFHQHS): binds | binding result (VYFHQHSI): binds | binding result (YFHQHSIL): binds | binding result (GSRWIQYK): binds | binding result (SRWIQYKG): binds | binding result (YKSDQALH): binds
